Data as given in article PMC3412864 (PLoS ONE, 2012).
Substitutions are numbered along the chain they refer to. Names may count otherwise.

B1: Gluconacetobacter hansenii chromate reductase (Gh-ChrR) (enzyme, Gluconacetobacter hansenii ATCC 23769)
chain: MTTTSPLHFVTLLGSLRKASFNAAVARALPEIAPEGIAITPLGSIGTFPHYSQDVQEEGFPAPVLTMAQQIATADAVVIVTPEYNYSVPGVLKNAIDWLSRVSPQPLAGKPVALVTASPGMIGGARAQYHLRQSLVFLDAYVLNRPEAMIGQVTGKVDAQTLELSDVATREFLARQLDALAALARTLSPRAIT
notes: Gh-ChrR, NAD(P)H-dependent FMN reductase from Gluconacetobacter hansenii ATCC 23769 (ZP_06834583); 193 native residues; codon-optimised synthetic gene in pJexpress411; Monomer 21.3 kDa (193 native residues plus a six-residue C-terminal poly-histidine tag); In the crystal 5-6 N-terminal and 7-9 C-terminal residues are not seen; also called putative chromate reductase; source: E. coli BL21(DE3), …
B2: Gh-ChrR (Novacetimonas hansenii ATCC 23769; S118A) (protein)
chain: B1 chain with S118A
B3: Gh-ChrR (Novacetimonas hansenii ATCC 23769; N85A) (protein)
chain: B1 chain with N85A
B4: Gh-ChrR (Novacetimonas hansenii ATCC 23769; R101A) (protein)
chain: B1 chain with R101A

How the values were obtained:
Gh-ChrR [1] = target: T1, Gh-ChrR (Novacetimonas hansenii, UniProt D5QFC5); experiment: X-ray crystal structure, […] Å; absorbance stoichiometry; format: binding; details: non-covalent, one FMN per monomer, co-purified
T1 construct: gene GXY_09224; full length (193 native residues) plus C-terminal 6xHis tag kept; E. coli BL21(DE3), codon-optimised

Gh-ChrR [2] = target: T1, Gh-ChrR; experiment: chromate reduction rate; format: biochemical; details: 200 µM NADPH, 5 µM enzyme, 50 mM Tris-HCl, 100 mM NaCl, pH 7.4
Gh-ChrR [3] = target: T1, Gh-ChrR; experiment: initial velocities, ordered bireactant model with substrate inhibition; format: biochemical; details: competitive with chromate, dead-end FMN-enzyme-NADH complex
Excerpt: initial velocities, ordered bireactant model with substrate inhibition on Gh-ChrR | Ki is the dissociation constant of the dead-end product of FMN-Gh-ChrR-NADH

[4] = substrate: NC(=O)C1=CN([C@@H]2O[C@H](COP(=O)(O)OP(=O)(O)OC[C@H]3O[C@@H](n4cnc5c(N)ncnc54)[C@H](O)[C@@H]3O)[C@@H](O)[C@H]2O)C=CC1; experiment: as above; format: biochemical, Novacetimonas hansenii; details: varied chromate and NADH, Tris-HCl pH 7.4
Excerpt: initial velocities, ordered bireactant model with substrate inhibition on […] | KmB is the Michaelis-Menten constant of NADH

purified protein = substrate: [O]=[Cr](=[O])([OH])[OH]; experiment: purified protein; details: 100 µM NADH, 5 µM enzyme, 50 mM Tris-HCl, 100 mM NaCl, pH 7.4, 37°C, aerobic
[5] = target: the molecule itself; experiment: crystal structure; hanging-drop vapor diffusion at room temperature; protein ~9 mg/mL in 20 mM Tris-HCl, 150 mM NaCl, pH 7.4; precipitant 0.5% PEG4000, 10% isopropanol, 0.1 M HEPES pH 7.5; 2.25 Å; four monomers in the asymmetric unit

Row | Molecule | Km (purified protein) [µM] | Vmax (purified protein) [µmol/min/mg] | kcat (purified protein) [s⁻¹] | kcat/Km (purified protein) [M⁻¹ s⁻¹] | also measured
1 | Cc1cc2nc3c(=O)[nH]c(=O)nc-3n(C[C@H](O)[C@H](O)[C@H](O)COP(=O)(O)O)c2cc1C [FMN] |  |  |  |  | X-ray crystal structure, 2.25 Å; absorbance stoichiometry (Gh-ChrR [1]): Gh-ChrR crystallized with one molecule of FMN associated with each protein monomer
2 | NC(=O)C1=CN([C@@H]2O[C@H](COP(=O)(O)OP(=O)(O)OC[C@H]3O[C@@H](n4cnc5c(N)ncnc54)[C@H](OP(=O)(O)O)[C@@H]3O)[C@@H](O)[C@H]2O)C=CC1 [NADPH] |  |  |  |  | chromate reduction rate (Gh-ChrR [2]): Both NADH and NADPH support maximal chromate reduction by Gh-ChrR
3 | NC(=O)C1=CN([C@@H]2O[C@H](COP(=O)(O)OP(=O)(O)OC[C@H]3O[C@@H](n4cnc5c(N)ncnc54)[C@H](O)[C@@H]3O)[C@@H](O)[C@H]2O)C=CC1 [NADH] |  |  |  |  | Ki (Gh-ChrR [3]): 3.5 ± 0.7 µM
4 | B1 | 240 ± 70 | 0.75 | 0.25 | 1000 | Km [4]: 7 ± 1 µM; stoichiometry N [5]: 4
5 | B2 | 600 ± 20 | 0.9 | 0.3 | 500 | 
6 | B3 | 600 ± 100 | 0.16 | 0.053 | 90 | 
7 | B4 | 1900 ± 600 | 0.24 | 0.08 | 40 | 
